The values that follow come from patent publication US20210253718A1 (MODMAB THERAPEUTICS, published 2021).

For orientation: Kd means the free concentration of one partner at which half of the binding sites on the other are occupied at equilibrium, for simple one-to-one binding. As a reminder, the koff is the first-order rate constant of dissociation. Usually kon stands for a measure of how fast the partners come together.

Assay [1] has as its target T1, recombinant human FZD5-Fc chimera (R&D Systems, Catalog no. 1617-FZ) (human, UniProt Q13467 27-167).
T1 construct: used for selection and ELISA; Fc part of the bought chimera not given
T1 sequence: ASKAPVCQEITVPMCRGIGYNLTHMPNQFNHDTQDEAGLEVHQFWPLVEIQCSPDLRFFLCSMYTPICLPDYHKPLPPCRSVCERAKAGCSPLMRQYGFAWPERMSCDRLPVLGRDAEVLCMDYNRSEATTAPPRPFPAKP
Briefly: SPR, Frizzled-Fc chimera.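 Further: binding targets are Fc fusions carrying an extracellular Frizzled fragment that contains the CRD.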 Background: SPR reads the build-up and loss of mass on a sensor chip optically.

A further assay addresses T2, FZD8-Fc (UniProt Q9H461 28-158, limits assumed).
T2 construct: extracellular domain; also called Frizzled-Fc chimera (FZD8); not shown: Fc part
T2 sequence (looked up): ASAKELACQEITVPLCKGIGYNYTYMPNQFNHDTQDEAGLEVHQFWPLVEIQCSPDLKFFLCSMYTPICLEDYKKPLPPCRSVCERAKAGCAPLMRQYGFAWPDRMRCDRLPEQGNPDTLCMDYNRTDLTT
Briefly: SPR, Frizzled-Fc chimera.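 Further: binding targets are Fc fusions carrying an extracellular Frizzled fragment that contains the CRD.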

In assay [2] the target is FZD1 cysteine-rich domain (CRD), MYC-tagged and GPI-anchored on CHO cells (human). Kind of assay: flow cytometry, CHO-CRD cells. (A flow cytometer gives signals particle by particle.)
In assay [3] the target is FZD2 cysteine-rich domain (CRD), MYC-tagged and GPI-anchored on CHO cells (human, UniProt Q14332 35-161). Briefly: flow cytometry, CHO-CRD cells.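 Further: flow cytometry of Fab binding to CHO cells overexpressing a Frizzled CRD, with binding defined as median fluorescence over twice that of CHO cells lacking any Frizzled CRD.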
The target of assay [4] is T3, FZD3 cysteine-rich domain (CRD), MYC-tagged and GPI-anchored on CHO cells (human, UniProt Q9NPG1 24-150, GPI anchor).
T3 construct: domain: cysteine-rich domain (CRD); also called FZD3 CRD; CHO-myc-FZDGPI; not shown: MYC tag and GPI anchor signal
T3 sequence (looked up): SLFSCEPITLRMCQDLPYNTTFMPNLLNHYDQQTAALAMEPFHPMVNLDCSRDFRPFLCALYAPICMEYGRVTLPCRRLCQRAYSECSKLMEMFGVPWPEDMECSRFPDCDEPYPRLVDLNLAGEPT
Briefly: flow cytometry, CHO-CRD cells.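 Further: flow cytometry of Fab binding to CHO cells overexpressing a Frizzled CRD, with binding defined as median fluorescence over twice that of CHO cells lacking any Frizzled CRD.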

The target of assay [5] is T4, FZD4 cysteine-rich domain (CRD), MYC-tagged and GPI-anchored on CHO cells (human, UniProt Q9ULV1 42-167, GPI anchor).
T4 construct: also called FZD4 CRD; CHO-myc-FZDGPI; not shown: MYC tag and GPI anchor signal
T4 sequence: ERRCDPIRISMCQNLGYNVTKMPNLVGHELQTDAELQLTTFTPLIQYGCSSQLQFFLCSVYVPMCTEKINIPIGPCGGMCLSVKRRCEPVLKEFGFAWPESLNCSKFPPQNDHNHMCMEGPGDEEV
Briefly: flow cytometry, CHO-CRD cells.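 Further: flow cytometry of Fab binding to CHO cells overexpressing a Frizzled CRD, with binding defined as median fluorescence over twice that of CHO cells lacking any Frizzled CRD.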

In assay [6] the target is T5, FZD5 cysteine-rich domain (CRD), MYC-tagged and GPI-anchored on CHO cells (human, UniProt Q13467 29-156, GPI anchor).
T5 construct: also called FZD5 CRD; CHO-myc-FZDGPI; not shown: MYC tag and GPI anchor signal
T5 sequence: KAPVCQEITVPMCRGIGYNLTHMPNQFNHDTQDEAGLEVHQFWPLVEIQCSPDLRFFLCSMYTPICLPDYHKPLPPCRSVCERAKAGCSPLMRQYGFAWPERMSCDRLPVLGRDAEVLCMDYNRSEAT
Briefly: flow cytometry, CHO-CRD cells.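 Further: flow cytometry of Fab binding to CHO cells overexpressing a Frizzled CRD, with binding defined as median fluorescence over twice that of CHO cells lacking any Frizzled CRD.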

Assay [7] addresses T6, FZD6 cysteine-rich domain (CRD), MYC-tagged and GPI-anchored on CHO cells (human, UniProt O60353 20-146, GPI anchor).
T6 construct: also called FZD6 CRD; CHO-myc-FZDGPI; not shown: MYC tag and GPI anchor signal
T6 sequence: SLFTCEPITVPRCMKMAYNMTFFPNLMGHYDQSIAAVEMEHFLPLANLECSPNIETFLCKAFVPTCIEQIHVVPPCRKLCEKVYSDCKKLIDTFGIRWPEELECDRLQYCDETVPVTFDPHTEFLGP
Briefly: flow cytometry, CHO-CRD cells.

Assay [8] has as its target FZD7 cysteine-rich domain (CRD), MYC-tagged and GPI-anchored on CHO cells (human, UniProt O75084 45-169). Kind of assay: flow cytometry, CHO-CRD cells.
Assay [9] deals with T7, FZD8 cysteine-rich domain (CRD), MYC-tagged and GPI-anchored on CHO cells (human, UniProt Q498S8 31-155 (rat entry), GPI anchor).
T7 construct: also called FZD8 CRD; CHO-myc-FZDGPI; not shown: MYC tag and GPI anchor signal
T7 sequence: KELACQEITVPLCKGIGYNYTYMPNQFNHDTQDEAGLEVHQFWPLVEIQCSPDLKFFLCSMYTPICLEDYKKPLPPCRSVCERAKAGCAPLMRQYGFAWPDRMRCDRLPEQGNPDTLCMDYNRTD
Kind of assay: flow cytometry, CHO-CRD cells.

In assay [10] the target is T8, FZD9 cysteine-rich domain (CRD), MYC-tagged and GPI-anchored on CHO cells (human, UniProt O00144 35-161, GPI anchor).
T8 construct: also called FZD9 CRD; CHO-myc-FZDGPI; not shown: MYC tag and GPI anchor signal
T8 sequence: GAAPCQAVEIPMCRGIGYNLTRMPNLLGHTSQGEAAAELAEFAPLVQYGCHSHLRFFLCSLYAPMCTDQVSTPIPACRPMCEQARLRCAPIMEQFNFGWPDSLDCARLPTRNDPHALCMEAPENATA
Briefly: flow cytometry, CHO-CRD cells.

In assay [11] the target is T9, FZD10 cysteine-rich domain (CRD), MYC-tagged and GPI-anchored on CHO cells (human, UniProt Q9ULW2 30-156, GPI anchor).
T9 construct: also called FZD10 CRD; CHO-myc-FZDGPI; not shown: MYC tag and GPI anchor signal
T9 sequence: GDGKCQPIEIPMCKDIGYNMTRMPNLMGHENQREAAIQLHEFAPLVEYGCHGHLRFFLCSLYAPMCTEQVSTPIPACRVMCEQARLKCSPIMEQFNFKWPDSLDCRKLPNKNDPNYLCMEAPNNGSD
Kind of assay: flow cytometry, CHO-CRD cells.

For assay [12], the target named is T3, FZD3 cysteine-rich domain (CRD), …. Kind of assay: immunofluorescence, CHO-CRD cells.
In assay [13] the target is T4, FZD4 cysteine-rich domain (CRD), …. Briefly: immunofluorescence, CHO-CRD cells.
The target of assay [14] is T6, FZD6 cysteine-rich domain (CRD), …. Kind of assay: immunofluorescence, CHO-CRD cells.
The target of assay [15] is T8, FZD9 cysteine-rich domain (CRD), …. Briefly: immunofluorescence, CHO-CRD cells.
Assay [16] addresses T9, FZD10 cysteine-rich domain (CRD), …. Kind of assay: immunofluorescence, CHO-CRD cells.

B1: IgG-2921 (antibody, V domains shown)
VH: EVQLVESGGGLVQPGGSLRLSCAASGFNISYYYIHWVRQAPGKGLEWVASIYPSSGSTSYADSVKGRFTISADTSKNTAYLQMNSLRAEDTAVYYCARGAMDYWGQGTLVTVSS
VL: DIQMTQSPSSLSASVGDRVTITCRASQSVSSAVAWYQQKPGKAPKLLIYSASSLYSGVPSRFSGSRSGTDFTLTISSLQPEDFATYYCQQWYAGSLITFGQGTKVEIK
On to B1, for which, in assay [1], the equilibrium dissociation constant (Kd) is 106 pM, the koff came out at 9.81e-05 s⁻¹ and the on-rate constant (kon) came out at 922000 M⁻¹ s⁻¹. Moreover, in the assay with FZD8-Fc, the affinity, expressed as Kd, was 24.4 pM; the koff was determined as 2.71e-05 s⁻¹; the on-rate (kon) stood at 1.11e+06 M⁻¹ s⁻¹.

B2: IgG-2919 (antibody, V domains shown)
VH: EVQLVESGGGLVQPGGSLRLSCAASGFNISYSYIHWVRQAPGKGLEWVASIYSSSGSTSYADSVKGRFTISADTSKNTAYLQMNSLRAEDTAVYYCARGAIDYWGQGTLVTVSS
VL: DIQMTQSPSSLSASVGDRVTITCRASQSVSSAVAWYQQKPGKAPKLLIYSASSLYSGVPSRFSGSRSGTDFTLTISSLQPEDFATYYCQQWYSSGHVLITFGQGTKVEIKR
notes: human IgG1 heavy chain (hG1), human kappa light chain (hK)
Regarding B2, in assay [1], the Kd was 194 pM, the koff came to 8.06e-05 s⁻¹ and the on-rate constant (kon) stood at 416000 M⁻¹ s⁻¹. In the assay with FZD8-Fc, this molecule returned a dissociation constant Kd of 42.7 pM, a koff of 2.28e-05 s⁻¹ and a kon of 533000 M⁻¹ s⁻¹.

B3: IgG-2920 (antibody, V domains shown)
VH: EVQLVESGGGLVQPGGSLRLSCAASGFNISYYYIHWVRQAPGKGLEWVASIYPSSGSTSYADSVKGRFTISADTSKNTAYLQMNSLRAEDTAVYYCARGGMDYWGQGTLVTVSS
VL: DIQMTQSPSSLSASVGDRVTITCRASQSVSSAVAWYQQKPGKAPKLLIYSASSLYSGVPSRFSGSRSGTDFTLTISSLQPEDFATYYCQQWFAGALITFGQGTKVEIK
As to B3, in assay [1], the dissociation constant Kd was found to be 88.3 pM, the koff was found to be 0.000317 s⁻¹ and the kon is 3.59e+06 M⁻¹ s⁻¹. In the assay with FZD8-Fc, the affinity, expressed as Kd, was 56 pM; the koff came out at 0.000238 s⁻¹; the kon is 4.25e+06 M⁻¹ s⁻¹.

B4: IgG-2910 (antibody, V domains shown)
VH: EVQLVESGGGLVQPGGSLRLSCAASGFNISYSYMHWVRQAPGKGLEWVASIYSSSSSTSYADSVKGRFTISADTSKNTAYLQMNSLRAEDTAVYYCARGAMDYWGQGTLVTVSS
VL: DIQMTQSPSSLSASVGDRVTITCRASQSVSSAVAWYQQKPGKAPKLLIYSASSLYSGVPSRFSGSRSGTDFTLTISSLQPEDFATYYCQQWYGSHLITFGQGTKVEIK
For B4, in [1], the dissociation constant Kd was 115 pM, the off-rate constant (koff) came to 0.000174 s⁻¹ and the on-rate constant (kon) stood at 1.52e+06 M⁻¹ s⁻¹. In the assay with FZD8-Fc, this molecule registered a Kd of 42.7 pM, a koff of 2.28e-05 s⁻¹ and a kon of 533000 M⁻¹ s⁻¹.

B5: Fab-2916 (Fab, V domains shown)
VH: EVQLVESGGGLVQPGGSLRLSCAASGFNISYSSIHWVRQAPGKGLEWVASIYPSYSYTYYADSVKGRFTISADTSKNTAYLQMNSLRAEDTAVYYCARYGYYGMDYWGQGTLVTVSS
VL: DIQMTQSPSSLSASVGDRVTITCRASQSVSSAVAWYQQKPGKAPKLLIYSASSLYSGVPSRFSGSRSGTDFTLTISSLQPEDFATYYCQQWYHYPYLITFGQGTKVEIK
notes: Fab
Turning to B5, the median fluorescence amounted to 34.3 in assay [2]; 18.9 in [3]; 4.53 in assay [4]; 6.1 in assay [5]; 24.1 in assay [6]; 3.49 in assay [7]. The median fluorescence worked out at 36.2 in assay [8], 7.37 in [9], 3.52 in assay [10] and 2.94 in assay [11]. Also, the binding result in assay [12], in assay [13], in assay [14], in assay [15] and in assay [16] was “no binding” each time.

B6: IgG-2929 (antibody, V domains shown)
VH: EVQLVESGGGLVQPGGSLRLSCAASGFNISYYYIHWVRQAPGKGLEWVASIYPSSSSTSYADSVKGRFTISADTSKNTAYLQMNSLRAEDTAVYYCARGAMDYWGQGTLVTVSS
VL: DIQMTQSPSSLSASVGDRVTITCRASQSVSSAVAWYQQKPGKAPKLLIYSASSLYSGVPSRFSGSRSGTDFTLTISSLQPEDFATYYCQQWYSSYGLITFGQGTKVEIK
notes: also called Fv-2929
In the case of B6, the kon is 2.77e+06 M⁻¹ s⁻¹ in assay [1] and 3.27e+06 M⁻¹ s⁻¹ in the assay with FZD8-Fc.

B7: Fab-2927 (Fab, V domains shown)
VH: EVQLVESGGGLVQPGGSLRLSCAASGFNIYYSSMHWVRQAPGKGLEWVASIYPSYGYTSYADSVKGRFTISADTSKNTAYLQMNSLRAEDTAVYYCARYGYYGFDYWGQGTLVTVSS
VL: DIQMTQSPSSLSASVGDRVTITCRASQSVSSAVAWYQQKPGKAPKLLIYSASSLYSGVPSRFSGSRSGTDFTLTISSLQPEDFATYYCQQWGSHGYLITFGQGTKVEIK
notes: Fab; also called Fv-2927
For the molecule B7, the median fluorescence is 18.7 in assay [2]; 17.9 in assay [3]; 4.45 in assay [4]; 5.94 in assay [5]; 28.3 in assay [6]; 3.05 in [7]. For the same molecule, the median fluorescence in assay [8] was 16.7; in [9], 10.3; in assay [10], 3.85; in assay [11], 3.31. For the same molecule, the binding result in [12], in assay [13], in assay [14], in assay [15] and in assay [16] was “no binding” throughout.
